The values below are quoted from earlier work in publication PMC3742252.

The target of this data set is TSH (Bos taurus) (UniProt P01217).

For “thyroid-stimulating hormone receptor (from UniProt Q8SPP9)”, the dissociation constant Kd is 1 nM.
